Measured values: patent US20250270315A1 (ELPISCIENCE SUZHOU BIOPHARMA, published 2025)
Where two headings read alike, the source gives them in different places.

Tests used:
[1] = target: T1, human SIRPα v2 ECD recombinant protein (tag not given) (human); test: competitive ELISA, mFc-CD47 ECD on coated SIRPα v2 ECD
T1 construct: extracellular domain; also called ELISA microplate coated human SIRPα v2 ECD
Method: (§1) Competitive ELISA assay was used to determine whether the purified chimeric antibodies can block CD47 and SIRPα interaction. Briefly, antibody and mFc tagged human CD47 ECD recombinant protein were co-incubated with ELISA microplate coated human SIRPα v1 ECD (FIGS. 6A and 6B) or human SIRPα v2 ECD (FIGS. 7A and 7B) recombinant protein. After washing, HRP labeled anti-mouse Fc 2nd antibody (Sigma) was added and incubated at 37° C. for 1 hour. Then, 100 μl/well of TMB solution (Biotechnology) was added. After incubation for 15 minutes at room temperature, the reaction was stopped by the addition of 50 μl of 1N HCl. OD 450 nm was read. Blocking ratio was determined by blockade of human CD47 ECD recombinant protein binding to ELISA microplate coated human SIRPα ECD recombinant protein. Other than 005, all antibodies as tested can block interaction between human CD47 and different human SIRPα variants.

[2] = target: T2, human SIRPβ ECD recombinant protein (6×His tagged) (human, UniProt O00241 30-371); test: ELISA, recombinant human SIRPβ ECD
T2 construct: extracellular domain; Bought from Sino Biological; also called hSIRPβ ECD; not shown: 6×His tag
Excerpt: (§2) Binding activity of the purified chimeric antibodies against SIRPβ and SIRPBI was detected by ELISA assay using recombinant proteins of human SIRPβ ECD (FIGS. 3A and 3B), human SIRPBI ECD (FIGS. 3D and 3E) and FACS assay using CHOK 1 cells stably expressing human SIRPB (FIG. 3C).

[3] = target: T3, human SIRPβL ECD recombinant protein (6×His tagged) (human, UniProt Q5TFQ8 30-371); test: ELISA, hSIRPβI ECD
T3 construct: given variously as SIRPBL, SIRPBI and SIRPβI; Bought from Biointron; also called human SIRPBL ECD; human SIRPBI ECD
Excerpt: as §2

[4] = target: T1, human SIRPα v2 ECD recombinant protein …; test: competitive ELISA, coated human SIRPα v2 ECD, blocked ligand mFc tagged human CD47 ECD
Method: as §1

[5] = target: T4, full length human SIRPα v1 stably expressed on CHOK1 or 293F cells (human, UniProt P78324 31-504); test: competitive FACS, mFc-CD47 ECD on CHOK1-human SIRPα v1 cells
T4 construct: whole, on cells; also called CHOK1-human SIRPα v1; CHOK1-hSIRPα v1
Procedure, shortened: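 Antibody co-incubated with mFc-tagged human CD47 ECD on CHOK1 cells stably expressing human SIRPα v1 or v2; dye-labeled anti-mouse Fc secondary added, 37 °C for 1 h. Fluorescence intensity read; blocking ratio derived from inhibition of CD47 ECD binding to SIRPα-expressing cells.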

[6] = target: T4, full length human SIRPα v1 stably …; test: FACS, CHOK1-hSIRPα v1 cells
[7] = target: T5, mFc tagged human SIRPα v1 ECD recombinant protein (human, UniProt P78324 31-373); test: competitive ELISA binning, mFc-SIRPα v1 ECD; competitor 042c
T5 construct: extracellular domain; Bought from Biointron; not shown: mouse IgG Fc (mFc) tag
Method: (§3) Competitive ELISA assay was used for epitope binning of purified chimeric antibodies. Briefly excessive competitor antibody and mFc tagged human SIRPα v1 ECD recombinant protein were co-incubated with ELISA microplate coated antibody. After washing, HRP labeled anti-mouse Fc 2nd antibody (Sigma) was added and incubated at 37° C. for 1 hour. Then, 100 μl/well of TMB solution (Biotechnology) was added. After incubation for 15 minutes at room temperature, the reaction was stopped by the addition of 50 μl of 1N HCl. OD 450 nm was read. Competition ratio was calculated. The antibodies that can compete each other for binding to SIRPα may have related binding epitopes.

[8] = target: T5, mFc tagged human SIRPα v1 ECD …; test: competitive ELISA binning, mFc-SIRPα v1 ECD; competitor 025c
Method: as §3

[9] = target: T1, human SIRPα v2 ECD recombinant protein …; test: competitive ELISA, mFc-CD47 ECD on coated SIRPα v2 ECD; remark: listed apart in the source
Method: as §1
The humanized antibodies were tested for the ability to block CD47 and SIRPα interaction with competitive ELISA assay (refer to methods described in Example 4.2.3.).

[10] = target: T6, human SIRPγ stably expressed on 293F cells (human, UniProt Q9P1W8 29-387); test: FACS, 293F-human SIRPγ cells
T6 construct: whole, on cells

[11] = target: T5, mFc tagged human SIRPα v1 ECD …; test: competitive ELISA binning, mFc-SIRPα v1 ECD; competitor hu1H9G4
Method: as §3

[12] = target: T7, human SIRPβ stably expressed on CHOK1 cells (human, UniProt O00241 30-398); test: FACS, CHOK1-hSIRPβ cells
T7 construct: whole, on cells; also called CHOK1-human SIRPB; CHOK1-hSIRPβ
Excerpt: as §2

[13] = target: T6, human SIRPγ stably expressed on 293F …; test: FACS, 293F-hSIRPγ cells
Excerpt: All the humanized antibodies as tested were confirmed to retain the similar activity as the parental antibody of 025c to bind to SIRP family members.

[14] = target: T2, human SIRPβ ECD recombinant protein …; test: ELISA, hSIRPβ ECD
Excerpt: as §2

T5 sequence (P78324 31-373): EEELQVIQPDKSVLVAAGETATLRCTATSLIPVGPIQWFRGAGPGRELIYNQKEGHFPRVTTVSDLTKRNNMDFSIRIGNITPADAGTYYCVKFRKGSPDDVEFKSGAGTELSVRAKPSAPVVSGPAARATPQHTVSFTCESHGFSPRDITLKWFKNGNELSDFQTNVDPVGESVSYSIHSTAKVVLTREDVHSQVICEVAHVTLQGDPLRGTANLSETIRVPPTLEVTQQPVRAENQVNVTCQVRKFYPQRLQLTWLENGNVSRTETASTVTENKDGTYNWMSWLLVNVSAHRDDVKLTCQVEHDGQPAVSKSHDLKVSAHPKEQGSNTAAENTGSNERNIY
T4 sequence (P78324 31-504): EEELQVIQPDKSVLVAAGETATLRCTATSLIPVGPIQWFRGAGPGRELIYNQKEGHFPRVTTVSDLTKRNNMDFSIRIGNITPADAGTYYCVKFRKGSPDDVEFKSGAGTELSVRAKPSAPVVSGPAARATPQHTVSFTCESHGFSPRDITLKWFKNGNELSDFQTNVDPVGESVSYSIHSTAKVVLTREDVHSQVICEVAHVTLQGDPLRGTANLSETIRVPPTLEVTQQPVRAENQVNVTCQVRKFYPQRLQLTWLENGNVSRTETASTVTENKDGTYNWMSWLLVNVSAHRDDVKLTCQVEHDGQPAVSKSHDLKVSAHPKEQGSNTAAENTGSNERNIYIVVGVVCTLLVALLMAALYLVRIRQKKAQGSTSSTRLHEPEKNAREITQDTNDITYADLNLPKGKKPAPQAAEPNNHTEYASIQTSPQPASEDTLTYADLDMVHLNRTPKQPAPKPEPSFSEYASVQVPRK
T2 sequence (O00241 30-371): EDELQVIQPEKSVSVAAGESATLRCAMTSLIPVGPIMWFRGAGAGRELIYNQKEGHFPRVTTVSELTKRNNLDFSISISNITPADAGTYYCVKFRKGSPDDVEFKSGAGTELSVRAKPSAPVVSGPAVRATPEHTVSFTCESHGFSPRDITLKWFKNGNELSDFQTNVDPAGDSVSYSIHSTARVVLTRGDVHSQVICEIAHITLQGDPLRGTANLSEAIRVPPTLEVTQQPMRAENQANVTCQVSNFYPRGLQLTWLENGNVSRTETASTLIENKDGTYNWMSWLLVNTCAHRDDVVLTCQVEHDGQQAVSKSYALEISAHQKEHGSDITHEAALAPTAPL
T6 sequence (Q9P1W8 29-387): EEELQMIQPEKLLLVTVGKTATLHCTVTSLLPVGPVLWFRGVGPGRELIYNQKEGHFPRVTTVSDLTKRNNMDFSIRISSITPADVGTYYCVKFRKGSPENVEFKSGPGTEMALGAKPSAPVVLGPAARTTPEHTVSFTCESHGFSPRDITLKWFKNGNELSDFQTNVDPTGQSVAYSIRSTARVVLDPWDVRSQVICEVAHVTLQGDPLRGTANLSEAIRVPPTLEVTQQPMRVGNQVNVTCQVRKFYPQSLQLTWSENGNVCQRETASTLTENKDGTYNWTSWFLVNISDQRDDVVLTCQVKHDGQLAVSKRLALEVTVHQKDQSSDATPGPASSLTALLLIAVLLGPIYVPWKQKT
T3 sequence (Q5TFQ8 30-371 limits assumed): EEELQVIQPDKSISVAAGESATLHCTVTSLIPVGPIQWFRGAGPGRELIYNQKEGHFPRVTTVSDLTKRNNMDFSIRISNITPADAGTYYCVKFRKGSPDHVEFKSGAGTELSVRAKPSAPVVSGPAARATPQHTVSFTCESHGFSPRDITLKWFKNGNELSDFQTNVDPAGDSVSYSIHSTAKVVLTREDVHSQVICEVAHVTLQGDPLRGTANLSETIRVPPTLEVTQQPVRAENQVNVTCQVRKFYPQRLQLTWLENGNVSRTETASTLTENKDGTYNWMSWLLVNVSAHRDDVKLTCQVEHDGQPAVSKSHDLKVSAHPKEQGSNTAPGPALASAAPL
T7 sequence (O00241 30-398): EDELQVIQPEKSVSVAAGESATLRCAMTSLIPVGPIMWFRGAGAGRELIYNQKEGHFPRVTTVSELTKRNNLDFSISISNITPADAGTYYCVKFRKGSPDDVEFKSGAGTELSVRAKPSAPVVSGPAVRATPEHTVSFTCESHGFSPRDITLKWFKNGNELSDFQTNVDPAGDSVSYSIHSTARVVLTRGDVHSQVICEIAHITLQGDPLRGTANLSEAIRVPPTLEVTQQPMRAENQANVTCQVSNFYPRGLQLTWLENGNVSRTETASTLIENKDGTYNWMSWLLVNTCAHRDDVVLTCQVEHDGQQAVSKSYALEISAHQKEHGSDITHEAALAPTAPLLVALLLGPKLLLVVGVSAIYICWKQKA

B1: 025c (antibody, V domains shown)
VH: EVQLQQSGAELVKPGASVKLSCTASGFNIKDYYMHWVKQRTEQGLEWIGRIDPEDGETKYAPKFQGKATITADTSSNTAYLQLSSLTSEDTAVYYCDRGLAYWGQGTLVTVSA
VL: QIVLTQSPAIMSASPGEKVTLTCSASSSVSSSYLYWYQQKPGSSPKLWIYSTSNLASGVPARFSGSGSGTSYSLTISSMEAEDAASYFCHQWSSYPYTFGGGTKLEIK
notes: also called chimeric antibody 025c; parental antibody of 025c
[1]
  IC50: 2.21 nM
  TOP blocking (%): 96.5%
[2]
  EC50 (read off the curve): ~0.04 nM
[3]
  EC50: 0.33 nM
  TOP OD450: 2.8 OD450
[4]
  IC50 (read off the curve): ~2 nM
[5]
  IC50: 0.4 nM
  TOP blocking (%): 97.6%
[6]
  EC50: 1.49 nM
  TOP MFI: 77600 MFI
[7]
  % Competition: 19.1%
[8]
  % Competition: 93.5%
[9]
  IC50: 1.86 nM
  TOP blocking (%): 98.6%
[10]
  EC50: 0.11 nM
  TOP MFI: 3220 MFI
[11]
  % Competition: 15.3%
[12]
  EC50: 0.38 nM
  TOP MFI: 10900 MFI
[13]
  EC50: 0.2 nM
  TOP MFI: 22800 MFI
[14]
  EC50: 0.04 nM
  TOP OD450: 3.1 OD450
